# Experimental data reported in paper PMC12749748 (Nature Communications, 2025).
# B1: Recombinant human IRE1.KR (G547-L977) (domain or fragment, UniProt O75460 547-977, looked up)
# chain: GSSPSLEQDDGDEETSVVIVGKISFCPKDVLGHGAEGTIVYRGMFDNRDVAVKRILPECFSFADREVQLLRESDEHPNVIRYFCTEKDRQFQYIAIELCAATLQEYVEQKDFAHLGLEPITLLQQTTSGLAHLHSLNIVHRDLKPHNILISMPNAHGKIKAMISDFGLCKKLAVGRHSFSRRSGVPGTEGWIAPEMLSEDCKENPTYTVDIFSAGCVFYYVISEGSHPFGKSLQRQANILLGACSLDCLHPEKHEDVIARELIEKMIAMDPQKRPSAKHVLKHPFFWSLEKQLQFFQDVSDRIEKESLDGPIVKQLERGGRAVVKMDWRENITVPLQTDLRKFRTYKGGSVRDLLRAMRNKKHHYRELPAEVRETLGSLPDDFVCYFTSRFPHLLAHTYRAMELCSHERLFQPYYFHEPPEPQPPVTPDAL
# Biological target: the molecule itself
# Test: cryo-EM structure; IRE1:G6374:VCB complex purified by SEC, cross-linked with 500 µM BS3, 0.005% CTAB added; map at ~2.6 Å
protein,measurement,value
B1,stoichiometry N,2
